Substrate: Nc1ncnc2c1ncn2[C@@H]1O[C@H](COP(=O)(O)OP(=O)(O)OP(=O)(O)O)[C@@H](O)[C@H]1O
Assay: purified protein
Conditions: co-substrate Co(II)Cbi^+

B1: SeCobA (Salmonella enterica subsp. enterica serovar Typhimurium str. LT2) (protein)
chain: MSDERYQQRQQKVKDRVDARVAQAQEERGIIIVFTGNGKGKTTAAFGTAARAVGHGKNVGVVQFIKGTWPNGERNLLEPHGVEFQVMATGFTWETQNREADTAACMAVWQHGKRMLADPLLDMVVLDELTYMVAYDYLPLEEVISALNARPGHQTVIITGRGCHRDILDLADTVSELRPVKHAFDAGVKAQMGIDY
Protein B1 has a Km of 25.4 ± 9.0 µM, a kcat of 0.0067 s⁻¹ and a kcat/Km of 260 M⁻¹ s⁻¹.

Reference: publication PMC4278676
